Changes are numbered by the printed parent chain. Numbers in names are those of the source.

Data on 23 molecules can be found in patent US20240002497A1 (Merck Sharp & Dohme, published 2024).

B1: 65ASP (Fc fusion)
chain: EVQLVESGGGLVQPGGSLRLSCAASGSIFNINSMAWYRRAPGKQRELVASSTNGGSTNYADSVKGRFTISRDNAKRVYLQMNSLTPEDTAVYYCNALLQPSIYDISRTYWGQGTLVTVSS
notes: also called F0103275B05-5GS-Fc; not shown: 5GS linker; Fc moiety
B2: F010301641 (VHH)
VHH: EVQLVESGGGVVQPGGSLRLSCAASGSIFNINSMAWYRRAPGKQRELVASSTNGGSTNYADSVKGRFTISRDNAKNTVYLQMNSLRPEDTALYYCNALLQPSIYDISRTYWGQGTLVTVSS
notes: also called F0103275B05(R76_V78insT)(L11V, R76N, T83R, V89L)
B3: F0103275B05 (VHH)
VHH: B1 chain
notes: also called F0103275B05 (parental)-FLAG-HIS6
B4: F010301635 (VHH)
VHH: B1 chain with L11V, R39Q, T85R, V91L
notes: also called F0103275B05(L11V, R39Q, T83R, V89L)
B5: F010301637 (VHH)
VHH: B1 chain with L11V, T85R, V91L
notes: also called F0103275B05(L11V, T83R, V89L)
B6: F010301638 (VHH)
VHH: B1 chain with L11V, R39Q, R76N, T85R, V91L
notes: also called F0103275B05(L11V, R39Q, R76N, T83R, V89L)
B7: F010301636 (VHH)
VHH: B1 chain with L11V, R76N, T85R, V91L
notes: also called F0103275B05(L11V, R76N, T83R, V89L)
B8: F010301162 (VHH)
VHH: EVQLVESGGGLVQPGGSLRLSCAASGMLFNRNTQGWYRQAPGKQRELVAFIFSGGWTNYNDSVKGRFTISRDNAKRTMYLQMNSLKPEDSAIYYCSLSRYQGQGTLVTVSS
B9: F010301090 (VHH)
VHH: B8 VHH with R31A, N58T
B10: F010301080 (VHH)
VHH: B8 VHH with R31A, S53W, W56Y, T57V, N58T, Q101L
B11: F010301129 (VHH)
VHH: B8 VHH with R31A, S96A
B12: F010301191 (VHH)
VHH: B8 VHH with S96A, R99V
B13: F010302368 (VHH)
VHH: EVQLVESGGGVVQPGGSLRLSCAASSRAFIRDVFTGWYRQAPGKQRELVARIYNGGNTNYADSVKGRFTISRDNAKKTVYLQMNSLRPEDTALYYCLFSGTISTGREYRSGDYWGQGTLVTVSS
notes: F010302365 background plus R39Q, A63V
B14: F010302333 (VHH)
VHH: B13 VHH with A28Q, Q40R, G55E, V64A
notes: F010302365 background plus A28Q, G54E
B15: F010302341 (VHH)
VHH: B13 VHH with A28Q, G55E, V64A
notes: F010302365 background plus A28Q, R39Q, G54E
B16: F010302365 (VHH)
VHH: B13 VHH with Q40R, V64A
notes: also called F0103464B09(L11V, T24A, T25S, V40A, E44Q, F62S, S68T, M77T, T79Y, R81Q, S82aN, N82bS, K83R, G88A, V89L, N99S)
B17: F010302357 (VHH)
VHH: B13 VHH with A28Q, G55E
notes: F010302365 background plus A28Q, R39Q, G54E, A63V
B18: F010302366 (VHH)
VHH: B13 VHH with V64A
notes: F010302365 background plus R39Q
B19: F010301558 (VHH)
VHH: EVQLVESGGGLVQAGGSLRLSCAASGRILRIGYMRWHRQGAGKQREFVARITGDSATGYADSVKGRFTISRDNAKNTVYLQMNNLNPEDTAVYYCEALVTASVRGGSIHSGTYWGRGTLVTVSS
B20: F010302391 (VHH)
VHH: B19 VHH with L11V, A14P, H37Y, G40A, A41P, D54G, N84S, N86R, V92L, R116Q
B21: F010301566 (VHH)
VHH: B19 VHH with A23D, G53D, D54G
B22: F010301559 (VHH)
VHH: B19 VHH with G53D, D54G
B23: F010301563 (VHH)
VHH: B19 VHH with G53D

The first experiment addresses huNav1.7α + β1 (human). The experiment can be described thus: cell-based or functional assay.
On to B1, for which the “Qpatch IC50 [M], HEK cells” value stood at 1.2e-07 M.

For a further experiment, the target named is huNav1.7α + β1 on HEK cells (human, UniProt Q15858 1-1988; Q07699 19-218). The experiment in a line: binding FACS, HEK cells (HEKa/b1).
The EC50 is the concentration at which the effect is half-maximal. B2: the half-maximal effective concentration (EC50) stood at 230 nM.

For the molecule B3, the 50% effective concentration (EC50) was 39 nM.

In the case of B4, the EC50 is 31 nM.

B5: the half-maximal effective concentration (EC50) was 30 nM.

On to B6, for which the EC50 worked out at 32 nM.

As for B7, the concentration for a half-maximal effect (EC50) was determined as 30 nM.

Another experiment concerns the target huNav1.7α + β1 (human). The experiment in a line: cell-based or functional assay. The source holds these as a separate data set.
B8: the “Qpatch IC50” value stood at 32 nM.

Turning to B9, the “Qpatch IC50” value was determined as 22 nM.

For the molecule B10, the “Qpatch IC50” value amounted to 14 nM.

Consider B11, for which the “Qpatch IC50” value worked out at 126 nM.

For B12, the “Qpatch IC50” value is 63 nM.

Another experiment addresses T1, huNav157 chimera 14 + β1-β2-β3 on cells (human (huNav1.7α/huNav1.5α chimera)).
T1 construct: Extracellular loops and transmembrane helices of Nav1.7α, intracellular loops of Nav1.5α; P2A linkers are cleaved co-translationally; also called HEK FlpIn Nav157ch14-β1-β2-β3; huNav157 chimera 14-beta1-beta2-beta3
The experiment can be described thus: binding FACS, HEK FlpIn cells.
For B2, the concentration giving a half-maximal response (EC50) came out at 350 nM.

With B3, the EC50 amounted to 33 nM.

Regarding B4, the EC50 amounted to 35 nM.

Take B5: the EC50 worked out at 29 nM.

For B6, the EC50 amounted to 50 nM.

For B7, the EC50 was 45 nM.

The next experiment has as its target T2, huNav157 chimera 14 on cells (without β subunits) (human (huNav1.7α/huNav1.5α chimera)).
T2 construct: also called HEK FlpIn Nav157ch14
The experiment in a line: binding FACS, HEK FlpIn cells.
As for B2, the response was half-maximal at 310 nM (EC50).

In the case of B3, a half-maximal effect (EC50) was put at 12 nM.

Consider B4, for which the EC50 came to 16 nM.

On to B5, for which the concentration for a half-maximal effect (EC50) was 11 nM.

B6 returned an EC50 of 18 nM.

Molecule B7 gave an EC50 of 14 nM.

In a further experiment the target is T3, huNav1.7α + β1-β2-β3 (human Nav1.7α co-expressed with human Navβ1, Navβ2 and Navβ3 on cells) (human).
T3 construct: also called huNav1.7-beta1-beta2-beta3; CHO FlpIn huNav1.7α + β1-β2-β3
The experiment in a line: binding FACS, CHO FlpIn cells. A digest of the protocol:
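Cells at 1×10^5 per well incubated 30 min at 4 °C with purified FLAG3-tagged ISVD in FACS buffer (PBS, 10% FBS, NaN₃); bound ISVD detected via murine anti-Flag by flow cytometry, dead cells excluded with 1 μg/mL propidium iodide.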
With B3, the concentration giving a half-maximal response (EC50) is 66 nM.

With B5, the EC50 stood at 56 nM.

Another experiment deals with T4, huNav1.7α on HEK cells (without β subunits) (human, UniProt Q15858 1-1988).
T4 construct: also called HEKa huNav1.7α
The experiment can be described thus: binding FACS, HEK cells (HEKa).
For the molecule B2, the EC50 was 380 nM.

B3 displayed a 50% effective concentration (EC50) of 14 nM.

For the molecule B4, the 50% effective concentration (EC50) stood at 19 nM.

With B5, a half-maximal effect (EC50) was put at 13 nM.

For the molecule B6, the concentration giving a half-maximal response (EC50) turned out to be 23 nM.

For B7, the EC50 was 17 nM.

The next experiment deals with T5, huNav1.7α + β1 (human).
T5 construct: HEK293 cells; also called huNav1.7-beta1; huNav1.7-β1
The experiment in a line: binding FACS, HEK.
As to B1, the 50% effective concentration (EC50) came to 45 nM.

Another experiment deals with T6, huNav1.7α (human, UniProt Q15858 1-1988).
T6 construct: HEK cells expressing the α subunit without β subunits; also called huNav1.7 (alpha-subunit); Human Nav1.7α
The experiment can be described thus: binding FACS, HEK.
Molecule B1 yielded an EC50 of 21 nM.

In a further experiment the target is T7, rhNav1.7α+β1-β2-β3 (rhesus monkey α subunit with human β …).
T7 construct: P2A cleaves it into α, β1, β2, β3; also called rhNav1.7-beta1-beta2-beta3
The experiment in a line: binding FACS, CHO FlpIn cells.
With B13, the binding result is “no binding”.

On to B14, for which the binding result was “no binding”.

Take B15: the binding result is recorded as “no binding”.

For the molecule B16, the binding result was “no binding”.

For B17, the binding result is on record as “no binding”.

On to B18, for which the binding result was “no binding”.

The next experiment concerns the target T5, huNav1.7α + β1. The experiment can be described thus: cell-based or functional assay.
In the case of B19, the “Qpatch IC50” value came to 8 nM.

Consider B20, for which the “Qpatch IC50” value was 32 nM.

For the molecule B21, the “Qpatch IC50” value was 18 nM.

In the case of B22, the “Qpatch IC50” value worked out at 12 nM.

Regarding B23, the “Qpatch IC50” value came to 5 nM.
